Laboratory results as given in patent US20040014036.

What was measured:
[1] = system: Gal4 full length (Saccharomyces cerevisiae); assay: cell_activity; settings: yeast lacZ reporter, 5x17mer; activation dependent on Gal4 sites stated for the peptide activators
[2] = system: Gal4(1-100)-LS201 (Saccharomyces cerevisiae); assay: cell_activity; settings: yeast JPY9:RJR227 lacZ reporter; activation dependent on Gal4 sites (p75)

GAL4 consensus 17mer sites (five, reporter pRJR227)
activity (beta-gal units) [1]: 2350 | activity (beta-gal units) [2]: 5290
